Residue numbers refer to the chain shown, from its start.
B1: TM-86: anti-TMEM106B monoclonal antibody; VH SEQ ID NO: 491, VL SEQ ID NO: 526 (antibody, V domains shown)
VH: EVQLQQSGPVLVKPGASVKMSCKASGYTFTDYYIHWVKQSHGRSLEWIGVISPYNDNTNYNQKFKGKATLTVDKSSSTAYMELNSLTSEDSAVYYCVRTYYSNYFDYWGQGTTLTVSS
VL: DIVMTQSPSSLSVSAGEKVTMSCKSSQSLLNSGNQKNYLAWHQQRPGQPPKLLIYGASTRESGVPDRFTGSGSGTEFTLTISSVQAEDLAVYYCQNDHSYPLTFGAGTKLELK
modifications: Variable Heavy Chain -- TM-86; Variable Light Chain -- TM-86
B2: TM-28: anti-TMEM106B monoclonal antibody; CDR-H1-3 SEQ ID NO: 8, 59, 102; CDR-L1-3 SEQ ID NO: 142, 166, 190 (antibody, V domains shown)
VH: EVQLQQSGPVLVKPGPSVKISCMASVFTFNDYYIHWVKQSHGKSLEWIGLVYPYNGGTNYNQNFKGKATLTVDTSSRTAYMELNSLTSEDSAVYYCARSYFSNPIGYWGQGTLVTVSE
VL: B1 VL with A15V, M21V, H42Y, R45K, E76D
B3: TM-84: anti-TMEM106B monoclonal antibody; VH SEQ ID NO: 489, VL SEQ ID NO: 524 (antibody, V domains shown)
VH: QVQLQQSGAELVKPGASVKMSCKASGYTFTTFPIEWMKQNHGKSLEWIGNFHPYNDDTKYNEKFKGKATLTVEKSSSTVYLELSRLTSDDSAVYYCARYFYGGMDYWGQGTSVTVSS
VL: DIQMTQSPASLSVSVGETVTITCRASENIYSSLGWYHQKQGKSPQLLVFAATNLADGVPSRFSGSGSGTQYSLKINSLQSEDFGTYYCQHLWSVPWTFGGGTKLEIK
modifications: Variable Heavy Chain -- TM-84; Variable Light Chain -- TM-84
B4: TM-15: anti-TMEM106B monoclonal antibody; CDR-H1-3 SEQ ID NO: 15, 49, 92; CDR-L1-3 SEQ ID NO: 133, 171, 197 (antibody, V domains shown)
VH: QVQLQQPGAEFVRPGASVKLSCKASGYTFTNYWITWVKQRPGHGLEWIGDIYPGSGNSNYNESFKRKATLTVDTSSSTAYMHLSSQTSEDSAVYFCARKAYGGFPYWGQGTLVTVSA
VL: DIQMTQSPASLSVSVGETVTITCRVSENIYNNLAWYQQKQEKSPQLLVFAATNLADGVPSRFSGSGSGTQFSLKINSLQSEDFGTYYCQHFWDTPFTFGSGTKLEIK
B5: TM-88: anti-TMEM106B monoclonal antibody; VH SEQ ID NO: 493, VL SEQ ID NO: 528 (antibody, V domains shown)
VH: EAQLQQSGPVLVKPGASVKMSCKTSGYTFTDYYINWVKQSHGKSLEWIGVINPYSGATYYTQKFKGKATLTVDKSSSTAYMELNSQTSEDSAVYYCARGGYDYGHWYFDVWGTGTTVTVSS
VL: ETTVTQSPASLSMAIGEKVTIRCITSSDIDDHMNWYRQKPGEPPEFLISEGNALRPGVPSRFSSSGYGTDFIFTIENILSEDVADYYCLQSDNLPLTFGAGTKLELK
modifications: Variable Heavy Chain -- TM-88; Variable Light Chain -- TM-88
B6: TM-5: anti-TMEM106B monoclonal antibody; CDR-H1-3 SEQ ID NO: 6, 39, 82; CDR-L1-3 SEQ ID NO: 124, 164, 188 (antibody, V domains shown)
VH: QVQLQQSGTELARPGASVKVSCKASGYIFTTYGITWVKQRGGQGLEWIGEIYPRSDNTYYNEKFKDKATLTADKSSSTAYMELRSLTSEDSAVYFCARSKGSGTGDYWGQGTTVTVSS
VL: DIQMTQSPASLSASVGETVTITCRASENIYIYLAWYQQKQGKTPQLLVYNGKMLAENVPSRFSGSGSGTQFSLKINSLQPEDFGSYYCQHHYGSPPAFGAGTKLELK

Target: GST-TMEM106B (truncated, comprising amino acids 122-210 of SEQ ID NO:1) (Homo sapiens, UniProt Q9NUM4)
Assay: Pre-mix epitope binning of anti-TMEM106B antibodies (Carterra / Lake Pharma)
Type: binding
Parameters: key to epitope bin: Bin 1: competes for binding to the same or overlapping TMEM106B region as the TM1, TM17, TM22, TM26, TM79, and/or TM82 antibodies; Bin 2: competes for binding to the same or overlapping TMEM106B region as the TM3, TM9, TM10, TM11, TM12, TM13, TM18, TM19, TM21, TM24, TM25, TM32, TM35, TM37, TM42, TM45, TM48, TM54, TM59, TM60, TM61, and/or TM76 antibodies; Bin 3: competes for binding to the same or overlapping TMEM106B region as the TM7, TM15, TM83, and/or TM84 antibodies; Bin 4: competes for binding to the same or overlapping TMEM106B region as the TMS, TM28, TM29, TM30, TM63, TM64, TM72, TM78, TM80, TM86, and/or TM88 antibodies; Bin 5: does not bind to a truncated TMEM106B comprising amino acids 122-210 of SEQ ID NO:1
Conditions: for epitope bin: competition for binding to truncated GST-TMEM106B (amino acids 122-210); for Binding Community/Bin: epitope bin number, pre-mix binning on truncated GST-TMEM106B
Method: (§1) Monoclonal anti-TMEM106B antibodies were immobilized to a CMD 50M chip (Xantec # SPMXCMD5OM lot# SCCMD50M0416). The running buffer was HBS-EP+ with 1 mg/mL BSA. The GST-TMEM106B (truncated, comprising amino acids 122-210 of SEQ ID NO:1) antigen was prepared at a final concentration of 55 nM (corresponding to 2 μg/mL) and mixed with the competing analyte anti-TMEM106B antibodies at a final concentration of 333 nM (corresponding to 50 μg/mL) or compared to a buffer control. Samples were injected for 5 minutes over the array and regenerated after every cycle with 1 minute of two parts Pierce IgG-Elution buffer (ThermoFisher Cat#21004) and 1 part of 10 mM Glycine, pH 2.0 (Carterra).
Anti-TMEM106B antibodies sorted into various competing bins and resulting binning profiles. […] Antibodies within Bin 3 or Bin 4 partially block Bin 2 antibodies.
as §1, with “SPMXCMD50M” for “SPMXCMD5OM”, “lmg/ml” for “1 mg/mL”, “(truncated)” for “(truncated, comprising amino acids 122-210 of SEQ ID NO:1)”, “μg/ml)” for “μg/mL)”

Sequence of GST-TMEM106B (truncated, comprising amino acids 122-210 of SEQ ID NO:1) (Q9NUM4 122-210): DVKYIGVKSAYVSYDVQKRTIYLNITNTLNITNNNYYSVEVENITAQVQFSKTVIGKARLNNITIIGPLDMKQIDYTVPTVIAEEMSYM

Molecule	epitope bin	Binding Community/Bin
B1	Bin 4	4
B2	Bin 4	4
B3	Bin 3	3
B4	Bin 3	3
B5	Bin 4	4
B6	Bin 4	4
